To fix the notation:
B1: Ligand of Numb protein X 2 (Homo sapiens), Q8N448 (parent)
chain: MGTTSDEMVSVEQTSSSSLNPLCFECGQQHWTRENHLYNYQNEVDDDLVCHICLQPLLQPLDTPCGHTFCYKCLRNFLQEKDFCPLDRKRLHFKLCKKSSILVHKLLDKLLVLCPFSSVCKDVMQRCDLEAHLKNRCPGASHRRVALERRKTSRTQAEIENENGPTLLDPAGTLSPEADCLGTGAVPVERHLTSASLSTWSEEPGLDNPAFEESAGADTTQQPLSLPEGEITTIEIHRSNPYIQLGISIVGGNETPLINIVIQEVYRDGVIARDGRLLAGDQILQVNNYNISNVSHNYARAVLSQPCNTLHLTVLRERRFGNRAHNHSDSNSPREEIFQVALHKRDSGEQLGIKLVRRTDEPGVFILDLLEGGLAAQDGRLSSNDRVLAINGHDLKYGTPELAAQIIQASGERVNLTIARPGKPQPGNTIREAGNHSSSSQHHTPPPYYSRPSSHKDLTQCVTCQEKHITVKKEPHESLGMTVAGGRGSKSGELPIFVTSVPPHGCLARDGRIKRGDVLLNINGIDLTNLSHSEAVAMLKASAASPAVALKALEVQIVEEATQNAEEQPSTFSENEYDASWSPSWVMWLGLPSTLHSCHDIVLRRSYLGSWGFSIVGGYEENHTNQPFFIKTIVLGTPAYYDGRLKCGDMIVAVNGLSTVGMSHSALVPMLKEQRNKVTLTVICWPGSLV

The first test covers variants of B1. As to conditions: with mk09_human MAPK9, P45984.
On to S141A, for which the “effect of a mutation on the interaction” value is on record as “with no effect”.

Take Y266C: the “effect of a mutation on the interaction” value is given as “with no effect”.

With V145I, the “effect of a mutation on the interaction” value was “with no effect”.

In a further test the parent is B1. Particulars: with optn_human OPTN.
In the case of S141A, the “effect of a mutation on the interaction” value is on record as “with no effect”.

As for Y266C, the “effect of a mutation on the interaction” value is “disrupting interaction strength”.

In the case of V145I, the “effect of a mutation on the interaction” value is listed as “with no effect”.

The next test covers variants of B1. Particulars: with lrc8e_human LRRC8E.
Consider S198P, for which the “effect of a mutation on the interaction” value was “with no effect”.

Variants of B1 are the subject of the next test. As to conditions: with atpb_human ATP5F1B.
As to S198P, the “effect of a mutation on the interaction” value is “with no effect”.

In another test the parent is B1. As to conditions: with ptcd3_human PTCD3, Q96EY7.
For the variant S198P, the “effect of a mutation on the interaction” value is “with no effect”.

Variants of B1 are the subject of another test. As to conditions: with tbb5_human TUBB.
In the case of V145I, the “effect of a mutation on the interaction” value was “with no effect”.

Variants of B1 are the subject of a further test. Particulars: with at2l2_human PHYKPL.
For the variant V145I, the “effect of a mutation on the interaction” value was “with no effect”.

In the next test the parent is B1. Particulars: with ip6k2_human IP6K2, Q9UHH9.
With V145I, the “effect of a mutation on the interaction” value is given as “with no effect”.
